# Tests used:
# SLC25A4 (human) = SLC25A4 (human) (UniProt P12235); assay: co-IP/MS, IgG control IP of C-FLAG B3GNT2 cell lysate
# FKBP10 (human) = FKBP10 (human) (UniProt Q96AY3); assay: as above
# PDIA6 (human) = PDIA6 (human) (UniProt Q15084); assay: as above
# RPL24 (human) = RPL24 (human) (UniProt P83731); assay: as above
# ATP1A1 (human) = ATP1A1 (human) (UniProt P05023); assay: as above
# GCN1 (human) = GCN1 (human) (UniProt Q92616); assay: as above
# SQSTM1 (human) = SQSTM1 (human) (UniProt Q13501); assay: as above
# RPL23A (human) = RPL23A (human) (UniProt P62750); assay: as above
# RPS7 (human) = RPS7 (human) (UniProt P62081); assay: as above
# RPS9 (human) = RPS9 (human) (UniProt P46781); assay: as above
# PRDX1 (human) = PRDX1 (human) (UniProt Q06830); assay: as above
# RPS15 (human) = RPS15 (human) (UniProt P62841); assay: as above
# RPS3A (human) = RPS3A (human) (UniProt P61247); assay: as above
# UQCRC2 (human) = UQCRC2 (human) (UniProt P22695); assay: as above
# CKAP4 (human) = CKAP4 (human) (UniProt Q07065); assay: as above
# CANX (human) = CANX (human) (UniProt P27824); assay: as above
# TGM3 (human) = TGM3 (human) (UniProt Q08188); assay: as above
# PCBP1 (human) = PCBP1 (human) (UniProt Q15365); assay: as above
# RPL12 (human) = RPL12 (human) (UniProt P30050); assay: as above
# FAM3C (human) = FAM3C (human) (UniProt Q92520); assay: as above
# CALU (human) = CALU (human) (UniProt O43852); assay: as above
# ERLIN2 (human) = ERLIN2 (human) (UniProt O94905); assay: as above
# TUBB (human) = TUBB (human) (UniProt P07437); assay: as above
# ERLIN1 (human) = ERLIN1 (human) (UniProt O75477); assay: as above
# IPO4 (human) = IPO4 (human) (UniProt Q8TEX9); assay: as above
# PIP (human) = PIP (human) (UniProt P12273); assay: as above
# CAPZA1 (human) = CAPZA1 (human) (UniProt P52907); assay: as above
# SFXN3 (human) = SFXN3 (human) (UniProt Q9BWM7); assay: IgG control IP from lysate of N-FLAG B3GNT2 cells, mass spectrometry
# KPNB1 (human) = KPNB1 (human) (UniProt Q14974); assay: as above
# TRAFD1 (human) = TRAFD1 (human) (UniProt O14545); assay: as above
# RPL34 (human) = RPL34 (human) (UniProt P49207); assay: as above
# ABCD1 (human) = ABCD1 (human) (UniProt P33897); assay: as above
# HSP90AB1 (human) = HSP90AB1 (human) (UniProt P08238); assay: as above
# SLC25A22 (human) = SLC25A22 (human) (UniProt Q9H936); assay: as above
# TUBA1C (human) = TUBA1C (human) (UniProt Q9BQE3); assay: as above
# UBTF (human) = UBTF (human) (UniProt P17480); assay: as above
# IPO7 (human) = IPO7 (human) (UniProt O95373); assay: as above
# LDHA (human) = LDHA (human) (UniProt P00338); assay: as above
# Sequence of IPO7 (human) (O95373 whole entry): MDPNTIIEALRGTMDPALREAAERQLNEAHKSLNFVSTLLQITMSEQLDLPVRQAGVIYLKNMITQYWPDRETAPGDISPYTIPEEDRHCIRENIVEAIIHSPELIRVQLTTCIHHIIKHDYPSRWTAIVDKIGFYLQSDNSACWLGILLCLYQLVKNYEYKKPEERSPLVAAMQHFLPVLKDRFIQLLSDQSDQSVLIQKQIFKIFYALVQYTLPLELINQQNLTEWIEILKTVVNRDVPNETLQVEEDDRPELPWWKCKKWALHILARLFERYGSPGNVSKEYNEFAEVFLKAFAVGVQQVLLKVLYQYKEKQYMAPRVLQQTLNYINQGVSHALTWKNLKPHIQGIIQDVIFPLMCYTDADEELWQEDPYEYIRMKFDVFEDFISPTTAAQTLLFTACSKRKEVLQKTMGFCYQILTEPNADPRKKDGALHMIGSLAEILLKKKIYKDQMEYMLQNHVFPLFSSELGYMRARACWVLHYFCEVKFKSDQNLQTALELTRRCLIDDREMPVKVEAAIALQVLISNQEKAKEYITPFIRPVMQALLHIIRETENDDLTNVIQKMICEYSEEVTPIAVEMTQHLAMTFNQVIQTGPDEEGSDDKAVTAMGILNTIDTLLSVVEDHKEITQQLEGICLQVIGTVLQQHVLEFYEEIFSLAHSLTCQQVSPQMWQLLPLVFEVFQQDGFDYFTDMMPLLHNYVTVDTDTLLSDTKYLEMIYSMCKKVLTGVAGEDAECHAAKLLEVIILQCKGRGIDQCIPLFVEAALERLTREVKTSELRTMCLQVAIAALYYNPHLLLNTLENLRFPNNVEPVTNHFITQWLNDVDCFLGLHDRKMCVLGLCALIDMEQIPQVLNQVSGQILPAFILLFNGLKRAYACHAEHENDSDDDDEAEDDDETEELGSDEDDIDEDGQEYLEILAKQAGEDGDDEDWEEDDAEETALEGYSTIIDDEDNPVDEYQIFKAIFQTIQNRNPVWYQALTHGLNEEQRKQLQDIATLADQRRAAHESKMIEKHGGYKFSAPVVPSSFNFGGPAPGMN
# Sequence of PDIA6 (human) (Q15084 20-440 limits assumed): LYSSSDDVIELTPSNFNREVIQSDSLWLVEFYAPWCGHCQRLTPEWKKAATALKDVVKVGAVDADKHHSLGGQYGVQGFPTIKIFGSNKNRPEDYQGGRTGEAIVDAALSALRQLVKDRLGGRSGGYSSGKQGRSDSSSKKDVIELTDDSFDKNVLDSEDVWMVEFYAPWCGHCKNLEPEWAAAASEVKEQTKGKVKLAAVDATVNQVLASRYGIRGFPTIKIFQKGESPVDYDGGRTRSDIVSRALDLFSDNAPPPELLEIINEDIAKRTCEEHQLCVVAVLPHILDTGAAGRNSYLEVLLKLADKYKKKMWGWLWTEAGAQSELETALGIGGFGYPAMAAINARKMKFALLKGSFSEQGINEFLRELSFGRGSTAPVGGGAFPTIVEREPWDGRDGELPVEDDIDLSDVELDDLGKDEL
# Sequence of PCBP1 (human) (Q15365 whole entry): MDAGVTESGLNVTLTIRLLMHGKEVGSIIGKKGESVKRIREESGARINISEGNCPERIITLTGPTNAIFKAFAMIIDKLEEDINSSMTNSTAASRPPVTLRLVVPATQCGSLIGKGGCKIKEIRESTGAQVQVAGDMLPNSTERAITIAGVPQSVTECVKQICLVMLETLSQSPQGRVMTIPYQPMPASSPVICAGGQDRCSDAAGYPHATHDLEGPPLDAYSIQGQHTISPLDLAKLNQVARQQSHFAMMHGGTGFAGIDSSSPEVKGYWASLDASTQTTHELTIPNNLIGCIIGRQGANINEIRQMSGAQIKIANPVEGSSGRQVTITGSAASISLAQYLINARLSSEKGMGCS
# Sequence of TUBB (human) (P07437 whole entry): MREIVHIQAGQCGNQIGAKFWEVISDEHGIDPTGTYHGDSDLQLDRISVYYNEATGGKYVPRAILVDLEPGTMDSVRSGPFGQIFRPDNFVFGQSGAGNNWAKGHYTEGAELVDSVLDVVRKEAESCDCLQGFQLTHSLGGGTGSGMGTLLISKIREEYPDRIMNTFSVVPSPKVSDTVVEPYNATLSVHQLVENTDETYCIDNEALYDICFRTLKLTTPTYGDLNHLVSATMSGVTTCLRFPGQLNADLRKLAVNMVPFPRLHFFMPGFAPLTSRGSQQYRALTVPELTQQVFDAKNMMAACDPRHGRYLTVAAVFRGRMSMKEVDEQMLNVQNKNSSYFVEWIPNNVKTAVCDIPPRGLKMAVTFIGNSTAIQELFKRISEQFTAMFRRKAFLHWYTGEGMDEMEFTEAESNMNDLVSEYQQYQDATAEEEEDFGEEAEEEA
# Sequence of TGM3 (human) (Q08188 2-693 limits assumed): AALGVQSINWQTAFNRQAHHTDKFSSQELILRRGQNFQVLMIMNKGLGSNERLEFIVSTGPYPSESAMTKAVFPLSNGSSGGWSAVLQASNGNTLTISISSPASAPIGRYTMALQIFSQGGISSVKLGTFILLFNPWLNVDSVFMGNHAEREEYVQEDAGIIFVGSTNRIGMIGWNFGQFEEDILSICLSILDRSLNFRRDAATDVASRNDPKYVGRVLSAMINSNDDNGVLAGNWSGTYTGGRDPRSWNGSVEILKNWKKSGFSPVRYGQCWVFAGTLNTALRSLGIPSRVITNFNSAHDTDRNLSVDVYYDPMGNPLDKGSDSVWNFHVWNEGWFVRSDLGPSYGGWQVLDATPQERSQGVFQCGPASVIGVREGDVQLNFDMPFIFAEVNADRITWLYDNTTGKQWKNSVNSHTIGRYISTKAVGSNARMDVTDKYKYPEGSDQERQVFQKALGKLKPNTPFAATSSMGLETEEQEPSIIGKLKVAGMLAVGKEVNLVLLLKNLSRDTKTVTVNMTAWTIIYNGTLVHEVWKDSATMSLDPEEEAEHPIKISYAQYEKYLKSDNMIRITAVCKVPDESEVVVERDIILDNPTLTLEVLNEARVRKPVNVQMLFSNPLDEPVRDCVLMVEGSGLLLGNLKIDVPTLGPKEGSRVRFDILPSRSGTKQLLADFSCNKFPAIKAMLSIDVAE
# Sequence of PRDX1 (human) (Q06830 2-199 limits assumed): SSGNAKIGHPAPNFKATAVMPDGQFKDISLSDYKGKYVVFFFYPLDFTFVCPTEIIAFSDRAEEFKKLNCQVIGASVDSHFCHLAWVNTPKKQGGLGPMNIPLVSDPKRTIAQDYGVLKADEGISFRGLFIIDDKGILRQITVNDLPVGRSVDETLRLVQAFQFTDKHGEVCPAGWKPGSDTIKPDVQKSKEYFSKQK
# Sequence of UQCRC2 (human) (P22695 15-453 limits assumed): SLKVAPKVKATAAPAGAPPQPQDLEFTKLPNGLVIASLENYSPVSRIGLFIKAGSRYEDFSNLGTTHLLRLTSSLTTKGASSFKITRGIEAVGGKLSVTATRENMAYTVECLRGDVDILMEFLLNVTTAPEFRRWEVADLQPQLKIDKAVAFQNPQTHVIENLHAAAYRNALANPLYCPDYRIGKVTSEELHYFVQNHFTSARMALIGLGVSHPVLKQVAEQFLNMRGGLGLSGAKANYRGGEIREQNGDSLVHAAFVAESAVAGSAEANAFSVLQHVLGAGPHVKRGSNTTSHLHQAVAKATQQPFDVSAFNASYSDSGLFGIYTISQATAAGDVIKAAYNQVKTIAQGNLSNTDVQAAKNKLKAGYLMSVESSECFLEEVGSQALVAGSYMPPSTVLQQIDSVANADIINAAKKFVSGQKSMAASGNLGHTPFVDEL
# Sequence of CANX (human) (P27824 21-592 limits assumed): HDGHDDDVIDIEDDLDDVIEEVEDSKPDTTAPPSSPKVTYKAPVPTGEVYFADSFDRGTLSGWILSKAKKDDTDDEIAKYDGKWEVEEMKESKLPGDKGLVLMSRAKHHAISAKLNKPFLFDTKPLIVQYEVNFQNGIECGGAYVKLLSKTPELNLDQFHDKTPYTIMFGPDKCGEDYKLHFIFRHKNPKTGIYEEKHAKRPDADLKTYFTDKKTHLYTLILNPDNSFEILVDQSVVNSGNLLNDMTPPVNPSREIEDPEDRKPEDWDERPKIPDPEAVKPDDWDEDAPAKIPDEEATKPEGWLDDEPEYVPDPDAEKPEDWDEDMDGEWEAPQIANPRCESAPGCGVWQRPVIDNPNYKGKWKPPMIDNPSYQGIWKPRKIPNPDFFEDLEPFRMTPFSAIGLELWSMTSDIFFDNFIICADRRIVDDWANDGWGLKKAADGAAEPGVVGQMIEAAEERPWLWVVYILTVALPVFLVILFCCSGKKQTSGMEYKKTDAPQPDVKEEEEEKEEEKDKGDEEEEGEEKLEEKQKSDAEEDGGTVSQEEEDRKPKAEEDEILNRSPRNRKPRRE
# Sequence of FAM3C (human) (Q92520 25-227 limits assumed): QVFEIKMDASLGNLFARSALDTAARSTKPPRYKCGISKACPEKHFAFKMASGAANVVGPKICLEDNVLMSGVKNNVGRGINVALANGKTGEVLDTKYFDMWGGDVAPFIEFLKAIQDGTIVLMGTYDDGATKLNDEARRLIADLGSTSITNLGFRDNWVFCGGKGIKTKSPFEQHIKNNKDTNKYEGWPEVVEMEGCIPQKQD
# Sequence of FKBP10 (human) (Q96AY3 27-582 limits assumed): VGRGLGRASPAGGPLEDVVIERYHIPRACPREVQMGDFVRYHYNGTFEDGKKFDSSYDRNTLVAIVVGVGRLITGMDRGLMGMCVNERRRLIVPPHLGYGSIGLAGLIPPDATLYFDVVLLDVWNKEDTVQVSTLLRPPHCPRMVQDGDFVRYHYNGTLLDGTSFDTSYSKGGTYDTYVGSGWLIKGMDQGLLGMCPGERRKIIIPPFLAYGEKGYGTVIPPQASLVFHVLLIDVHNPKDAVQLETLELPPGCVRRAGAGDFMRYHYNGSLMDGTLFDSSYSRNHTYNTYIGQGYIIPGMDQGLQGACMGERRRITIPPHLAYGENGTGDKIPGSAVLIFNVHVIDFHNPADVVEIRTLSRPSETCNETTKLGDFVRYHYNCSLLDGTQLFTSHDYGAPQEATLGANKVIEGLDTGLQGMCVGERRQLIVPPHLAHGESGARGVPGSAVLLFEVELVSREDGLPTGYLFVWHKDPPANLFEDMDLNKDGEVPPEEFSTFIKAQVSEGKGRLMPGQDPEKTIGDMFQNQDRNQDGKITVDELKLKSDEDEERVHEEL
substance,measurement,setting,value
IgG control (Millipore Sigma 12-371) (antibody),co-IP mass spectrometry count,SLC25A4 (human),0
same,co-IP mass spectrometry count,FKBP10 (human),0
same,co-IP mass spectrometry count,PDIA6 (human),0
same,co-IP mass spectrometry count,RPL24 (human),3
same,co-IP mass spectrometry count,ATP1A1 (human),0
same,co-IP mass spectrometry count,GCN1 (human),0
same,co-IP mass spectrometry count,SQSTM1 (human),3
same,co-IP mass spectrometry count,RPL23A (human),4
same,co-IP mass spectrometry count,RPS7 (human),5
same,co-IP mass spectrometry count,RPS9 (human),0
same,co-IP mass spectrometry count,PRDX1 (human),0
same,co-IP mass spectrometry count,RPS15 (human),2
same,co-IP mass spectrometry count,RPS3A (human),10
same,co-IP mass spectrometry count,UQCRC2 (human),0
same,co-IP mass spectrometry count,CKAP4 (human),0
same,co-IP mass spectrometry count,CANX (human),0
same,co-IP mass spectrometry count,TGM3 (human),3
same,co-IP mass spectrometry count,PCBP1 (human),3
same,co-IP mass spectrometry count,RPL12 (human),5
same,co-IP mass spectrometry count,FAM3C (human),0
same,co-IP mass spectrometry count,CALU (human),0
same,co-IP mass spectrometry count,ERLIN2 (human),0
same,co-IP mass spectrometry count,TUBB (human),10
same,co-IP mass spectrometry count,ERLIN1 (human),0
same,co-IP mass spectrometry count,IPO4 (human),0
same,co-IP mass spectrometry count,PIP (human),2
same,co-IP mass spectrometry count,CAPZA1 (human),0
same,co-IP mass spectrometry count,SFXN3 (human),0
same,co-IP mass spectrometry count,KPNB1 (human),0
same,co-IP mass spectrometry count,TRAFD1 (human),0
same,co-IP mass spectrometry count,RPL34 (human),0
same,co-IP mass spectrometry count,ABCD1 (human),0
same,co-IP mass spectrometry count,HSP90AB1 (human),0
same,co-IP mass spectrometry count,SLC25A22 (human),0
same,co-IP mass spectrometry count,TUBA1C (human),8
same,co-IP mass spectrometry count,UBTF (human),0
same,co-IP mass spectrometry count,IPO7 (human),0
same,co-IP mass spectrometry count,LDHA (human),0
